Molecular target: human Robo-1 (human) (UniProt Q9Y6N7)
Test: cell-based or functional assay

UniProt Q9Y6N7, sequence (Q9Y6N7 26-1651): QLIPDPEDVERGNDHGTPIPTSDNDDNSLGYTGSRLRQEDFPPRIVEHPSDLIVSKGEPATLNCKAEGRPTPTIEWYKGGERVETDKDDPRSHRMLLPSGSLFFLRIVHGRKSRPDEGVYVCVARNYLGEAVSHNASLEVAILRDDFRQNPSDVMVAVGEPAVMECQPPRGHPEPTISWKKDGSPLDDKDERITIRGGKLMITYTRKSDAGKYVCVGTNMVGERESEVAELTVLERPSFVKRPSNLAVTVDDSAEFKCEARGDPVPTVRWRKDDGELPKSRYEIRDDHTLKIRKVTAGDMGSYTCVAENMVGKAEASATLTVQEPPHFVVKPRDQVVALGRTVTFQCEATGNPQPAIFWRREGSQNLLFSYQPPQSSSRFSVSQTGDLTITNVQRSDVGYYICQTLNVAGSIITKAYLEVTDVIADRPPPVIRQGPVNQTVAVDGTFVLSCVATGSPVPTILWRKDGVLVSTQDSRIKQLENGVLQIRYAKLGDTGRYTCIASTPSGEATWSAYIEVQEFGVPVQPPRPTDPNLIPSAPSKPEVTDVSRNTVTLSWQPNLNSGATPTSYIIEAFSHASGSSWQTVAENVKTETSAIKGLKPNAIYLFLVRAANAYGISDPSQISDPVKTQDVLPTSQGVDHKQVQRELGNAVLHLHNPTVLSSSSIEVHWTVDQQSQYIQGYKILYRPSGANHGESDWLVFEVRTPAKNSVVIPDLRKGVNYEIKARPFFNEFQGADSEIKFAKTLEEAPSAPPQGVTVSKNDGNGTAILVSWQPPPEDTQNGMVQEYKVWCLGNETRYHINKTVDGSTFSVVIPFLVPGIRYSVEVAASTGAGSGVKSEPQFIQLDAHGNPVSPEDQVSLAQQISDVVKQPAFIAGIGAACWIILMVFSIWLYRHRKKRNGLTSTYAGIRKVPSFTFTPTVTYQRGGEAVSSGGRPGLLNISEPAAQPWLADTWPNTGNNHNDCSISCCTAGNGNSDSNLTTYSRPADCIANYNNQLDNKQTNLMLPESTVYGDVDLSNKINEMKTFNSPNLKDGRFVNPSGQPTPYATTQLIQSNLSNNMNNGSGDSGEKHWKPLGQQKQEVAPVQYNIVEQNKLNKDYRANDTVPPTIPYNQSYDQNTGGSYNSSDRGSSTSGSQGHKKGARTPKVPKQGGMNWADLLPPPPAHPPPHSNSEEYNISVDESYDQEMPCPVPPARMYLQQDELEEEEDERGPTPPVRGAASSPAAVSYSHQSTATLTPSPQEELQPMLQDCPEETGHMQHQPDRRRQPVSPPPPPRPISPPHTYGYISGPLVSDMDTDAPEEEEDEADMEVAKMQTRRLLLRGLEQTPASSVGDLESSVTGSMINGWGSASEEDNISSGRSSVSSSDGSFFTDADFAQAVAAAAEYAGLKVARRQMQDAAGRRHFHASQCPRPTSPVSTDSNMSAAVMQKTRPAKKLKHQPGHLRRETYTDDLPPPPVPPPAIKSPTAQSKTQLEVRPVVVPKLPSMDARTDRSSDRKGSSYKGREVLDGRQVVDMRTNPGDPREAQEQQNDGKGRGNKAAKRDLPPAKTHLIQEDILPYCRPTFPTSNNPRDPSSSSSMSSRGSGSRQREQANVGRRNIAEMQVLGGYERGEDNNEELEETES

B1: full length human Slit2 (ligand, UniProt O94813-3 31-1521, looked up)
chain: QCSCSGSTVDCHGLALRSVPRNIPRNTERLDLNGNNITRITKTDFAGLRHLRVLQLMENKISTIERGAFQDLKELERLRLNRNHLQLFPELLFLGTAKLYRLDLSENQIQAIPRKAFRGAVDIKNLQLDYNQISCIEDGAFRALRDLEVLTLNNNNITRLSVASFNHMPKLRTFRLHSNNLYCDCHLAWLSDWLRQRPRVGLYTQCMGPSHLRGHNVAEVQKREFVCSGHQSFMAPSCSVLHCPAACTCSNNIVDCRGKGLTEIPTNLPETITEIRLEQNTIKVIPPGAFSPYKKLRRIDLSNNQISELAPDAFQGLRSLNSLVLYGNKITELPKSLFEGLFSLQLLLLNANKINCLRVDAFQDLHNLNLLSLYDNKLQTIAKGTFSPLRAIQTMHLAQNPFICDCHLKWLADYLHTNPIETSGARCTSPRRLANKRIGQIKSKKFRCSGTEDYRSKLSGDCFADLACPEKCRCEGTTVDCSNQKLNKIPEHIPQYTAELRLNNNEFTVLEATGIFKKLPQLRKINFSNNKITDIEEGAFEGASGVNEILLTSNRLENVQHKMFKGLESLKTLMLRSNRITCVGNDSFIGLSSVRLLSLYDNQITTVAPGAFDTLHSLSTLNLLANPFNCNCYLAWLGEWLRKKRIVTGNPRCQKPYFLKEIPIQDVAIQDFTCDDGNDDNSCSPLSRCPTECTCLDTVVRCSNKGLKVLPKGIPRDVTELYLDGNQFTLVPKELSNYKHLTLIDLSNNRISTLSNQSFSNMTQLLTLILSYNRLRCIPPRTFDGLKSLRLLSLHGNDISVVPEGAFNDLSALSHLAIGANPLYCDCNMQWLSDWVKSEYKEPGIARCAGPGEMADKLLLTTPSKKFTCQGPVDVNILAKCNPCLSNPCKNDGTCNSDPVDFYRCTCPYGFKGQDCDVPIHACISNPCKHGGTCHLKEGEEDGFWCICADGFEGENCEVNVDDCEDNDCENNSTCVDGINNYTCLCPPEYTGELCEEKLDFCAQDLNPCQHDSKCILTPKGFKCDCTPGYVGEHCDIDFDDCQDNKCKNGAHCTDAVNGYTCICPEGYSGLFCEFSPPMVLPRTSPCDNFDCQNGAQCIVRINEPICQCLPGYQGEKCEKLVSVNFINKESYLQIPSAKVRPQTNITLQIATDEDSGILLYKGDKDHIAVELYRGRVRASYDTGSHPASAIYSVETINDGNFHIVELLALDQSLSLSVDGGNPKIITNLSKQSTLNFDSPLYVGGMPGKSNVASLRQAPGQNGTSFHGCIRNLYINSELQDFQKVPMQTGILPGCEPCHKKVCAHGTCQPSSQAGFTCECQEGWMGPLCDQRTNDPCLGNKCVHGTCLPINAFSYSCKCLEGHGGVLCDEEEDLFNPCQAIKCKHGKCRLSGLGQPYCECSSGYTGDSCDREISCRGERIRDYYQKQQGYAACQTTKKVSRLECRGGCAGGQCCGPLRSKRRKYSFECTDGSSFVDEVEKVVKCGCTRCVS
  average platelet surface area coverage on collagen at shear flow rate 1900 sec^-1: 3.1%
  average surface area covered by platelets on collagen at shear flow rate 1000 sec^-1: 1.3%
  mean platelet surface area on fibrinogen after 30 min (platelet spreading): 20.9 µm^2
  mean surface area of platelets on collagen after 30 min (platelet spreading): 13.5 µm^2
  mean surface area of platelets on fibronectin after 30 min (platelet spreading): 19.3 µm^2
  percentage of platelets expressing cell-surface CD62P after ADP stimulation: 13.2%
  phosphorylation of Akt during platelet spreading on fibrinogen (fold over basal 1.0) (fold over basal): 2.8

— patent US20110305732A1
